Data published in paper PMC3782296 (Journal of molecular biology, 2011).

Target: the molecule itself
Experiment: cross-linking

B1: wild-type human Tom40A lacking amino acid residues 1 to 82 (hTom40AΔ1-82) (domain or fragment, UniProt O96008 83-361, looked up)
chain: FEECHRKCKELFPIQMEGVKLTVNKGLSNHFQVNHTVALSTIGESNYHFGVTYVGTKQLSPTEAFPVLVGDMDNSGSLNAQVIHQLGPGLRSKMAIQTQQSKFVNWQVDGEYRGSDFTAAVTLGNPDVLVGSGILVAHYLQSITPCLALGGELVYHRRPGEEGTVMSLAGKYTLNNWLATVTLGQAGMHATYYHKASDQLQVGVEFEASTRMQDTSVSFGYQLDLPKANLLFKGSVDSNWIVGATLEKKLPPLPLTLALGAFLNHRKNKFQCGFGLTIG
  stoichiometry N: 2
